According to US20220233705A1, “COMBINED THERAPIES OF ACTIVATABLE IMMUNE CHECKPOINT INHIBITORS AND CONJUGATED ACTIVATABLE ANTIBODIES” (CYTOMX THERAPEUTICS, INC., priority 2019, published 2022):

Tests used:
[1] = system: CT26 huCD166 cells; test: Calreticulin surface expression on CT26 huCD166 cells; type: cell-based, mouse; details: CT26 huCD166, 72 hours
Description: (§1) ICD can be measured by markers such as the expression of calreticulin on the surface of cancer cells and secretion of HMGB1. In this exemplary study, A375 cells (ATCC) derived from a human malignant melanoma were cultured in RPMI-1640™ medium with 10% (v/v) fetal bovine serum for 48 hours in the presence of the indicated amount of drug. HCC1806 cells (ATCC) derived from human breast carcinoma were cultured in DME medium for 48 hours in the presence of the indicated amount of drug. CT26 cells and CT26 huCD166 cells (CT26 cells expressing human CD166 polypeptide as discussed herein) were cultured in RPMI-1640™ medium with 10% (v/v) fetal bovine serum for 72 hours in the presence of the indicated amount of drug. Following incubation, calreticulin expression was detected by flow cytometry using a FITC conjugated calreticulin antibody (Novus Bio, clone 1G6A7; #NBP1-47518F). HMGB1 protein was detected by ELISA (Tecan HMGB1 ELISA kit, #NC9959947).

[2] = system: CT26 cells; test: Calreticulin surface expression on CT26 cells; type: cell-based, mouse; details: CT26, 72 hours
Description: as §1

[3] = system: HCC1806 cells; test: Immunogenic cell death markers in HCC1806 cells; type: cell-based, human; details: HCC1806, 48 hours; for secreted HMGB1: ELISA
Description: as §1

[4] = system: A375 cells; test: Immunogenic cell death markers in A375 cells; type: cell-based, human; details: A375, 48 hours; for secreted HMGB1: ELISA
Description: as §1

[5] = system: dendritic cells (MoDCs); test: Dendritic cell maturation markers by flow cytometry; type: cell-based, human; parameters: dose or concentration left out as unconfirmed; details: 48 hours, compared to untreated cells
Description: In this study, dendritic cells were cultured with […] anti-CD166 antibody conjugated to DM4 (CD166-DM4 ADC) or a dendritic cell maturation cocktail (Stem Cell Technology DC maturation kit (#10989)) for 48 hours. […] The MoDCs were then assessed for maturation by flow cytometric measurement of dendritic cell maturation markers CD80 (2D10 antibody, BioLegend), CD83 (HB15e antibody, BioLegend), HLA-DR (L243 antibody, BioLegend), and CD86 (IT2.2 antibody, BioLegend).

[6] = system: allogenic CD4+ T cells co-cultured with MoDCs; type: cell-based, human
[7] = system: activated human T cells; test: Cytotoxicity towards activated T cells (CellTiter-Glo)
[8] = system: human dendritic cells (MoDC); test: Cytotoxicity towards fully activated MoDC (CytoTox-Glo); details: 48 hours

Molecule: COc1cc2cc(c1Cl)N(C)C(=O)C[C@H](OC(=O)[C@H](C)N(C)C(=O)CCC(C)(C)S)[C@]1(C)O[C@H]1[C@H](C)[C@@H]1C[C@@](O)(NC(=O)O1)[C@H](OC)/C=C/C=C(\C)C2 [free DM4, DM4, reference compound]
- surface expression of calreticulin (CRT) [1]: increased surface expression
- surface expression of calreticulin (CRT) [2]: increased surface expression
- expression of calreticulin (CRT) [3]: increased expression
- secreted HMGB1 [3]: increased amounts
- expression of calreticulin (CRT) [4]: increased expression
- secreted HMGB1 [4]: increased amounts
- expression of CD83 [5]: slightly increased
- expression of CD86 [5]: slightly increased

B1: anti-CD166 ADC (conjugate)
VH: QITLKESGPTLVKPTQTLTLTCTFSGFSLSTYGMGVGWIRQPPGKALEWLANIWWSEDKHYSPSLKSRLTITKDTSKNQVVLTITNVDPVDTATYYCVQIDYGNDYAFTYWGQGTLVTVSS
VL: DIVMTQSPLSLPVTPGEPASISCRSSKSLLHSNGITYLYWYLQKPGQSPQLLIYQMSNLASGVPDRFSGSGSGTDFTLKISRVEAEDVGVYYCAQNLELPYTFGQGTKLEIK
- surface expression of calreticulin (CRT) [1]: increased surface expression
- surface expression of calreticulin (CRT) [2]: increased surface expression
- production of IL-2 by allogeneic T cells [6]: slightly increase
- cytotoxic activity towards activated T cells ([7]; 72 hours treatment): minimal cytotoxic activity
- doses at which cytotoxicity was observed ([7]; activated T cells, 72 hours): above 10 nM
- expression of calreticulin (CRT) [3]: increased expression
- secreted HMGB1 [3]: increased amounts
- expression of calreticulin (CRT) [4]: increased expression
- secreted HMGB1 [4]: increased amounts
- expression of CD83 [5]: slightly increased
- expression of CD86 [5]: slightly increased
- cytotoxic activity towards MoDCs [8]: minimal cytotoxic activity
- doses at which cytotoxicity was observed ([8]; fully activated MoDC): above 10 nM
